Measurements from publication PMC9239388 (Journal of Inflammation Research, 2022).

Molecular target: the molecule itself
Assay: crystal structure

B1: human anionic trypsin (TRY2), enterokinase activated, cleaved at the Arg122-Val123 bond (enzyme)
chain 1: IVGGYICEENSVPYQVSLNSGYHFCGGSLISEQWVVSAGHCYKSRIQVRLGEHNIEVLEGNEQFINAAKIIRHPKYNSRTLDNDILLIKLSSPAVINSR
chain 2: VSAISLPTAPPAAGTESLISGWGNTLSSGADYPDELQCLDAPVLSQAECEASYPGKITNNMFCVGFLEGGKDSCQGDSGGPVVSNGELQGIVSWGYGCAQKNRPGVYTKVYNYVDWIKDTIAANS
**Q.** Does B1 bind?
**A.** Result: binds
